From patent US20180092961

What was measured:
[1] = target: calf thymus histone H3 (Roche) (UniProt P68432)
[2] = target: calf thymus histone H4 (Roche) (UniProt P62803)
[3] = tested on: murine histone H2A released from activated RAW264.7 macrophages
murine histone H3 = murine histone H3 (UniProt P68433)
[4] = target: murine histone H4 released from activated RAW264.7 macrophages (UniProt P62806)

human recombinant activated protein C (Xigris)
cleavage in a purified system, SDS-PAGE [1]: APC cleaved histone H3 and H4 in a dose dependent fashion | cleavage in a purified system, SDS-PAGE [2]: APC cleaved histone H3 and H4 in a dose dependent fashion | cleavage, SDS-PAGE [2]: Purified histone H4 was also cleaved by APC and a cluster of 4-7 KD fragments could be found on SDS-PAGE | new protein bands in conditioned medium in the presence of APC, MS/MS after tryptic digestion [3]: three peptide sequences ... in this protein band that matchs the murine histone H2A protein sequence (amino acids 21-29, 82-88 and 100-118) | new protein bands in conditioned medium in the presence of APC, Edman sequencing (murine histone H3): The N-terminal sequence of the 13 kD band protein was KSAPATGGV (SEQ ID NO:15) which matches the murine histone H3 internal sequence (Lys27-Lys36) | cleavage, Western blot of conditioned medium [4]: histone H4 was released into the conditioned medium and was cleaved by APC | new protein bands in conditioned medium in the presence of APC, Edman sequencing [4]: N-terminal sequence of the 10 kD band protein which matches the murine histone H4 internal sequence (Val21-Ile34)
